These sequences were tested on Escherichia coli TOP10 (assay: shrunken log2 fold change of peptide-encoding DNA abundance (4.5 h post-induction vs induction); higher = less antimicrobial activity (less host growth inhibition)). Settings: time post-induction: 4.5 h; library: site-saturation at positions 5, 18, 19, 20.
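Further: peptides expressed intracellularly from a pBAD plasmid library in pooled LB shake-flask culture, induced with 0.3% L-arabinose, DNA abundance read by NGS, three biological replicates, DESeq2 with apeglm shrinkage.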

| Sequence | shrunken log2 fold change |
| --- | --- |
| RRIRFRPPRLPRPRPRPTWWPRP | 0.494 |
| RRIRFRPPRLPRPRPRPVRSPRP | 0.234 |
| RRIRSRPPRLPRPRPRPDRWPRP | 0.0855 |
| RRIRARPPRLPRPRPRPYSYPRP | -0.292 |
| RRIRTRPPRLPRPRPRPFSLPRP | -0.0845 |
| RRIRIRPPRLPRPRPRPYVCPRP | 0.0199 |
| RRIRYRPPRLPRPRPRPIHFPRP | -0.679 |
| RRIRRRPPRLPRPRPRPYECPRP | -0.0148 |
| RRIRSRPPRLPRPRPRPENVPRP | 0.0202 |
| RRIRWRPPRLPRPRPRPINTPRP | -0.494 |
| RRIRTRPPRLPRPRPRPVGQPRP | 0.00905 |
| RRIRDRPPRLPRPRPRPMVSPRP | -0.00166 |
| RRIRSRPPRLPRPRPRPLRQPRP | 0.364 |
| RRIRDRPPRLPRPRPRPWIMPRP | -0.0114 |
| RRIRQRPPRLPRPRPRPGTNPRP | -0.0906 |
| RRIRCRPPRLPRPRPRPDICPRP | -0.22 |
| RRIRGRPPRLPRPRPRPKMDPRP | 0.738 |
| RRIRNRPPRLPRPRPRPRKKPRP | 0.163 |
| RRIRNRPPRLPRPRPRPDQEPRP | -0.00963 |
| RRIRQRPPRLPRPRPRPHDHPRP | -0.0539 |
| RRIRARPPRLPRPRPRPGFWPRP | 0.682 |
| RRIRLRPPRLPRPRPRPDPWPRP | 0.0779 |
| RRIRIRPPRLPRPRPRPGDFPRP | -0.162 |
| RRIRFRPPRLPRPRPRPEMVPRP | -0.143 |
| RRIRHRPPRLPRPRPRPPFAPRP | 0.564 |

| Sequence | shrunken log2 fold change |
| --- | --- |
| RRIRKRPPRLPRPRPRPKCNPRP | -0.0341 |
| RRIRVRPPRLPRPRPRPKHQPRP | 0.0697 |
| RRIRYRPPRLPRPRPRPQHGPRP | -0.0664 |
| RRIRCRPPRLPRPRPRPRDGPRP | 1 |
| RRIRHRPPRLPRPRPRPGTVPRP | -0.139 |
| RRIRWRPPRLPRPRPRPYGAPRP | -0.0532 |
| RRIRLRPPRLPRPRPRPYMWPRP | -1.05 |
| RRIRMRPPRLPRPRPRPSFTPRP | -0.0116 |
| RRIRNRPPRLPRPRPRPAGEPRP | 0.507 |
| RRIRYRPPRLPRPRPRPNGWPRP | -0.0316 |
| RRIRNRPPRLPRPRPRPFSKPRP | -0.303 |
| RRIRLRPPRLPRPRPRPQGQPRP | -0.0201 |
| RRIRHRPPRLPRPRPRPHSLPRP | -0.00992 |
| RRIRLRPPRLPRPRPRPGMGPRP | 0.241 |
| RRIRIRPPRLPRPRPRPDMFPRP | -0.17 |
| RRIRRRPPRLPRPRPRPNEEPRP | 0.0468 |
| RRIRRRPPRLPRPRPRPSRDPRP | 0.303 |
| RRIRDRPPRLPRPRPRPPRQPRP | 0.782 |
| RRIRWRPPRLPRPRPRPLRTPRP | 1.39 |
| RRIRIRPPRLPRPRPRPIDIPRP | -0.0353 |
| RRIRLRPPRLPRPRPRPWHWPRP | 0.019 |
| RRIRERPPRLPRPRPRPVKLPRP | -0.0426 |
| RRIRARPPRLPRPRPRPKIGPRP | 0.458 |
| RRIRVRPPRLPRPRPRPDIWPRP | 0.0543 |
| RRIRLRPPRLPRPRPRPENWPRP | 0.046 |

| Sequence | shrunken log2 fold change |
| --- | --- |
| RRIRIRPPRLPRPRPRPNMGPRP | -0.563 |
| RRIRARPPRLPRPRPRPFDAPRP | 0.116 |
| RRIRNRPPRLPRPRPRPLTIPRP | -0.389 |
| RRIRNRPPRLPRPRPRPGTFPRP | -0.281 |
| RRIRYRPPRLPRPRPRPCANPRP | -0.0013 |
| RRIRTRPPRLPRPRPRPSSLPRP | -0.0765 |
| RRIRYRPPRLPRPRPRPPQPPRP | 0.436 |
| RRIRRRPPRLPRPRPRPPDMPRP | 0.432 |
| RRIRVRPPRLPRPRPRPTLFPRP | -0.0123 |
| RRIRSRPPRLPRPRPRPCCGPRP | 0.983 |
| RRIRFRPPRLPRPRPRPRMLPRP | 3.84e-05 |
| RRIRERPPRLPRPRPRPWFTPRP | -0.187 |
| RRIRFRPPRLPRPRPRPHGVPRP | -0.0563 |
| RRIRVRPPRLPRPRPRPWNFPRP | -0.102 |
| RRIRVRPPRLPRPRPRPKWQPRP | -0.0246 |
| RRIRQRPPRLPRPRPRPTYCPRP | -0.0981 |
| RRIRYRPPRLPRPRPRPYTKPRP | -0.351 |
| RRIRQRPPRLPRPRPRPAACPRP | 0.183 |
| RRIRDRPPRLPRPRPRPATSPRP | 0.303 |
| RRIRKRPPRLPRPRPRPPCIPRP | -0.141 |
| RRIRERPPRLPRPRPRPNWNPRP | -0.236 |
| RRIRERPPRLPRPRPRPECWPRP | 0.447 |
| RRIRWRPPRLPRPRPRPSYNPRP | -0.343 |
| RRIRDRPPRLPRPRPRPRYIPRP | -0.356 |
| RRIRARPPRLPRPRPRPTHGPRP | 0.644 |

| Sequence | shrunken log2 fold change |
| --- | --- |
| RRIRKRPPRLPRPRPRPANEPRP | 0.151 |
| RRIRGRPPRLPRPRPRPGEWPRP | -0.0156 |
| RRIRLRPPRLPRPRPRPIGCPRP | -0.0407 |
| RRIRPRPPRLPRPRPRPAKMPRP | 0.0216 |
| RRIRQRPPRLPRPRPRPVVAPRP | 0.174 |
| RRIRDRPPRLPRPRPRPVHHPRP | 0.0594 |
| RRIRYRPPRLPRPRPRPLCLPRP | -0.341 |
| RRIRFRPPRLPRPRPRPPKAPRP | 0.332 |
| RRIRNRPPRLPRPRPRPCHTPRP | -0.316 |
| RRIRCRPPRLPRPRPRPVWQPRP | -0.063 |
| RRIRDRPPRLPRPRPRPHWDPRP | -0.0788 |
| RRIRKRPPRLPRPRPRPCKDPRP | 0.0741 |
| RRIRHRPPRLPRPRPRPTKFPRP | -0.138 |
| RRIRYRPPRLPRPRPRPGLTPRP | -0.21 |
| RRIRVRPPRLPRPRPRPEMFPRP | -0.0822 |
| RRIRCRPPRLPRPRPRPRMGPRP | 0.0392 |
| RRIRIRPPRLPRPRPRPGELPRP | -0.0665 |
| RRIRRRPPRLPRPRPRPRKKPRP | 0.207 |
| RRIRWRPPRLPRPRPRPLIPPRP | -0.327 |
| RRIRVRPPRLPRPRPRPENYPRP | -0.0159 |
| RRIRRRPPRLPRPRPRPKPVPRP | 0.191 |
| RRIRVRPPRLPRPRPRPHCNPRP | -0.408 |
| RRIRDRPPRLPRPRPRPMVTPRP | 0.769 |
| RRIRWRPPRLPRPRPRPLQIPRP | -0.125 |
| RRIRGRPPRLPRPRPRPNDVPRP | -0.208 |

| Sequence | shrunken log2 fold change |
| --- | --- |
| RRIRTRPPRLPRPRPRPQTLPRP | -0.278 |
| RRIRRRPPRLPRPRPRPNYGPRP | 0.00704 |
| RRIRCRPPRLPRPRPRPKMDPRP | -0.0622 |
| RRIRCRPPRLPRPRPRPGWLPRP | 0.801 |
| RRIRTRPPRLPRPRPRPTHIPRP | -0.308 |
| RRIRGRPPRLPRPRPRPQSFPRP | 0.218 |
| RRIRYRPPRLPRPRPRPKIIPRP | -1.21 |
| RRIRRRPPRLPRPRPRPNECPRP | 0.0616 |
| RRIRIRPPRLPRPRPRPKENPRP | -0.505 |
| RRIRYRPPRLPRPRPRPNTFPRP | -1.24 |
| RRIRNRPPRLPRPRPRPSYGPRP | -0.156 |
| RRIRKRPPRLPRPRPRPILAPRP | 0.0492 |
| RRIRSRPPRLPRPRPRPFHGPRP | -0.00545 |
| RRIRQRPPRLPRPRPRPSDHPRP | -0.298 |
| RRIRERPPRLPRPRPRPLAYPRP | -0.203 |
| RRIRKRPPRLPRPRPRPDHKPRP | -0.0248 |
| RRIRPRPPRLPRPRPRPYPHPRP | -0.237 |
| RRIRTRPPRLPRPRPRPLHTPRP | -0.161 |
| RRIRLRPPRLPRPRPRPIMCPRP | 0.02 |
| RRIRLRPPRLPRPRPRPGQTPRP | 0.277 |
| RRIRHRPPRLPRPRPRPHCPPRP | -0.207 |
| RRIRKRPPRLPRPRPRPYFEPRP | -0.584 |
| RRIRSRPPRLPRPRPRPLRRPRP | 0.404 |
| RRIRWRPPRLPRPRPRPWCFPRP | -0.0366 |
| RRIRNRPPRLPRPRPRPCHRPRP | -0.139 |

| Sequence | shrunken log2 fold change |
| --- | --- |
| RRIRGRPPRLPRPRPRPKCYPRP | 0.107 |
| RRIRLRPPRLPRPRPRPYYDPRP | -0.379 |
| RRIRARPPRLPRPRPRPRFTPRP | 0.267 |
| RRIRERPPRLPRPRPRPITEPRP | -0.159 |
| RRIRQRPPRLPRPRPRPQLFPRP | 0.0846 |
| RRIRCRPPRLPRPRPRPFALPRP | -0.33 |
| RRIRSRPPRLPRPRPRPVYQPRP | -1.16 |
| RRIRYRPPRLPRPRPRPLPFPRP | -0.78 |
| RRIRRRPPRLPRPRPRPPHYPRP | 1.15 |
| RRIRMRPPRLPRPRPRPHGYPRP | 0.185 |
| RRIRQRPPRLPRPRPRPCQTPRP | 0.00707 |
| RRIRNRPPRLPRPRPRPMFMPRP | -0.424 |
| RRIRKRPPRLPRPRPRPNSSPRP | -0.0248 |
| RRIRPRPPRLPRPRPRPPSTPRP | 0.123 |
| RRIRLRPPRLPRPRPRPGCYPRP | -0.115 |
| RRIRYRPPRLPRPRPRPSYIPRP | -1.4 |
| RRIRRRPPRLPRPRPRPIVTPRP | 0.0446 |
| RRIRWRPPRLPRPRPRPQFGPRP | 0.0671 |
| RRIRHRPPRLPRPRPRPIHRPRP | -0.147 |
| RRIRCRPPRLPRPRPRPLHFPRP | -0.131 |
| RRIRKRPPRLPRPRPRPMIVPRP | 0.00271 |
| RRIRCRPPRLPRPRPRPNTFPRP | -0.664 |
| RRIRGRPPRLPRPRPRPHYFPRP | 0.313 |
| RRIRWRPPRLPRPRPRPDTLPRP | -0.134 |
| RRIRHRPPRLPRPRPRPFLFPRP | -0.408 |
